Assay results reported in paper doi:10.1101/2024.06.02.597006 (bioRxiv, 2024).

Assays:
[1] = target: T1, Pex5 (full-length yeast Pex5, 1-612), His-Sumo cleaved off (Saccharomyces cerevisiae, UniProt P35056 1-612); test: cryo-EM structure
T1 sequence (looked up): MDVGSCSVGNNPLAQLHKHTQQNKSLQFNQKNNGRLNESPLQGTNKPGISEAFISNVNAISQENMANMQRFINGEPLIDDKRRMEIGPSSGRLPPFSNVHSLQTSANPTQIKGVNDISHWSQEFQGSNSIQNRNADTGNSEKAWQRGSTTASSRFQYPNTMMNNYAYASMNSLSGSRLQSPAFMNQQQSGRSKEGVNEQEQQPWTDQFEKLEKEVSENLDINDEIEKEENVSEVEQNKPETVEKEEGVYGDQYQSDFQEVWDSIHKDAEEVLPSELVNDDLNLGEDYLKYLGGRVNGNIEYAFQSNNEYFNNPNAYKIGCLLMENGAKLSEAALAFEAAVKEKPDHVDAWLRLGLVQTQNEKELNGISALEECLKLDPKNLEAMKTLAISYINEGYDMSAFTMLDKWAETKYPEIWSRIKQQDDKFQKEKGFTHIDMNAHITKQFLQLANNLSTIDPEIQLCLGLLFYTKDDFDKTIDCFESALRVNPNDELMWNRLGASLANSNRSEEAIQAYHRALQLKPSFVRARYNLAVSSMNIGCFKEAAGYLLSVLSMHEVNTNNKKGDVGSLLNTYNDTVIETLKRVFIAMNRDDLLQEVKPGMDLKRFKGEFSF

cryo-EM structure = target: the molecule itself; test: cryo-EM structure

B1: FLAG-Eci1 (yeast delta3, delta2-Enoyl-CoA Isomerase 1) (enzyme, Saccharomyces cerevisiae (yeast), UniProt Q05871 1-280, looked up)
chain: MSQEIRQNEKISYRIEGPFFIIHLMNPDNLNALEGEDYIYLGELLELADRNRDVYFTIIQSSGRFFSSGADFKGIAKAQGDDTNKYPSETSKWVSNFVARNVYVTDAFIKHSKVLICCLNGPAIGLSAALVALCDIVYSINDKVYLLYPFANLGLITEGGTTVSLPLKFGTNTTYECLMFNKPFKYDIMCENGFISKNFNMPSSNAEAFNAKVLEELREKVKGLYLPSCLGMKKLLKSNHIDAFNKANSVEVNESLKYWVDGEPLKRFRQLGSKQRKHRL
stoichiometry N [1]: 6 Eci1 per Pex5 | stoichiometry N (cryo-EM structure): 6
